How the values were obtained:
[1] = target: filamin C (FLNc) Ig-like domains 23–24, wild type (human); assay: SEC-MALS
[2] = target: filamin C (FLNc) Ig-like domains 23–24, wild type (human); assay: cross-linking
[3] = target: filamin C (FLNc) Ig-like domains 23–24, wild type (human); assay: cross-linking; remark: listed apart in the source

Measured: stoichiometry N

filamin C (FLNc) Ig-like domains 23–24, wild type (domain or fragment)
2: all assays above
